First the molecules themselves.
B1: PALS1 PSG (PDZ, SH3 and GK domains; residues 236–675 with a deletion between 411–460) (domain or fragment, human, UniProt Q8N3R9 236-675, looked up)
chain: PITDERVYESIGQYGGETVKIVRIEKARDIPLGATVRNEMDSVIISRIVKGGAAEKSGLLHEGDEVLEINGIEIRGKDVNEVFDLLSDMHGTLTFVLIPSQQIKPPPAKETVIHVKAHFDYDPSDDPYVPCRELGLSFQKGDILHVISQEDPNWWQAYREGDEDNQPLAGLVPGKEEILTYEEMSLYHQPANRKRPIILIGPQNCGQNELRQRLMNKEKDRFASAVPHTTRSRRDQEVAGRDYHFVSRQAFEADIAAGKFIEHGEFEKNLYGTSIDSVRQVINSGKICLLSLRTQSLKTLRNSDLKPYIIFIAPPSQERLRALLAKEGKNPKPEELREIIEKTREMEQNNGHYFDTAIVNSDLDKAYQELLRLINKLDTEPQWVPSTWLR
modifications: covalently labeled with dye NT647 (in the MST measurement only)
notes: PALS1, human cell junction protein; PDZ, SH3 and GK domains (PSG), residues 236–675, without the loop between the SH3 and GK domains (deletion between 411–460); codon-optimised synthetic gene in pET16-b; also called PASL1–PSG domains; source: E. coli BL21 (DE3) pLysS, purified (Ni-NTA, TEV cleavage, second Ni-NTA, SEC); not shown: 10x His, N-terminal, cleaved
B2: SARS-CoV-2 envelope (E) protein C-terminal 18-amino acid peptide (Ec18) (peptide)
peptide: VYSRVKNLNSSRVPDLLV
notes: SARS-CoV-2 envelope (E) protein, 75 residues; also called E C-terminal peptide

Data set [1] deals with the molecule itself. Briefly: SEC; purified PSG on a TSKgel G3000SW column in 25 mM Tris pH 7.5, 100 mM NaCl, 1 mM TCEP. For orientation: In gel filtration, larger molecules generally elute earlier.
The target in data set [2] is B1. Briefly: MST; […]; 50 mM Tris pH 7.5, 100 mM NaCl, 1 mM DTT, 1 mM EDTA, 0.05% Tween 20; 10 min at room temperature; […]. Conditions: both partners purified.

Regarding B1, in data set [1], the stoichiometry N (in general, the number of molecules, sites or subunits per partner or assembly) worked out at 2.

As for B2, the affinity in data set [2], expressed as Kd, was 11.2 µM.

Values taken from article PMC8187709, “Structural basis for SARS-CoV-2 envelope protein recognition of human cell junction protein PALS1” (Nature Communications, 2021).
